The values that follow come from US20260250320A1, “LIPIDATED PEPTIDE INHIBITORS OF INTERLEUKIN-23 RECEPTOR” (Janssen Pharmaceutica NV, priority 2023, published 2026).

B1: SEQ ID NO: 45 (peptide)
peptide: [dR][Pen]NT[Trp(7-Me)]K(Ac)[Pen][AEF][2Nal][Thp]K(code d)N[3Pal][Sar]-NH2
modifications: disulfide 2-7 (inferred); not fully specified (N-terminus); printed as HOC18gEPEG2PEG2CO-r-Pen(3)-N-T-7MeW-K(Ac)-Pen(3)-AEF-2Nal-THP-K(d)-N-3Pya-Sar-CONH2
B2: SEQ ID NO: 50 (peptide)
peptide: XNTXXXXXXXNXXK
modifications: MeCO-Pen(3)-N-T-7MeW-K(Ac)-Pen(3)-AEF-2Nal-THP-K(d)-N-3Pya-Sar-K(PEG2PEG2gEC18OH)-CONH2
B3: SEQ ID NO: 54 (peptide)
peptide: succiniccarn-[dR][Pen]NT[Trp(7-Me)]K(Ac)[Pen][AEF][2Nal][Thp]EN[3Pal][Sar]K([PEG2″-PEG2″-γGlu-C18OH])-NH2
modifications: disulfide 2-7 (inferred); reading uncertain; also: printed as succiniccarn-r-Pen(3)-N-T-7MeW-K(Ac)-Pen(3)-AEF-2Nal-THP-E-N-3Pya-Sar-K(PEG2PEG2gEC18OH)-CONH2
B4: SEQ ID NO: 77 (peptide)
peptide: XNTXXXXXXKNXX
modifications: 5cpaCO-Pen(3)-N-T-7MeW-K(Ac)-Pen(3)-AEF-2Nal-THP-K(PEG2PEG2gEC18OH)-N-3Pya-Sar-CONH2
B5: SEQ ID NO: 72 (peptide)
peptide: [dR][Pen]NT[Trp(7-Me)]K([PEG2″-PEG2″-C18OH])[Pen][AEF][2Nal][Thp]EN[3Pal][Sar]-NH2
modifications: disulfide 2-7 (inferred); not fully specified (N-terminus); printed as cPEG3aCO-r-Pen(3)-N-T-7MeW-K(PEG2PEG2C18OH)-Pen(3)-AEF-2Nal-THP-E-N-3Pya-Sar-CONH2
B6: SEQ ID NO: 59 (peptide)
peptide: Ac-[dR][Pen]NT[Trp(7-Me)]K([PEG2″-PEG2″-γGlu-C18OH])[Pen][AEF][2Nal][Thp]EN[3Pal][Sar]-NH2
modifications: disulfide 2-7
B7: SEQ ID NO: 20 (peptide)
peptide: succiniccarn-[dR][Pen]NT[Trp(7-Me)]K([PEG2′-PEG2′-γGlu-C18OH])[Pen][AEF][2Nal][Thp]EN[3Pal][Sar]-NH2
modifications: disulfide 2-7 (inferred); reading uncertain; also: printed as succiniccarn-r-Pen(3)-N-T-7MeW-K(PEG2PEG2gEC18OH)-Pen(3)-AEF-2Nal-THP-E-N-3Pya-Sar-CONH2
B8: SEQ ID NO: 49 (peptide)
peptide: succiniccarn-[dR][Pen]NT[Trp(7-Me)]K(Ac)[Pen][AEF][2Nal][Thp]K([PEG2″-PEG2″-γGlu-C18OH])N[3Pal][Sar]-NH2
modifications: disulfide 2-7 (inferred); reading uncertain; also: printed as succiniccarn-r-Pen(3)-N-T-7MeW-K(Ac)-Pen(3)-AEF-2Nal-THP-K(PEG2PEG2gEC18OH)-N-3Pya-Sar-CONH2
B9: SEQ ID NO: 23 (peptide)
peptide: Ac-[dR][Pen]NT[Trp(7-Me)]K(Ac)[Pen][dAEF′][2Nal][Thp]EN[3Pal][Sar]K([PEG2′-PEG2′-γGlu-C18OH])-NH2
modifications: disulfide 2-7 (inferred); reading uncertain; also: printed as MeCO-r-Pen(3)-N-T-7MeW-K(Ac)-Pen(3)-AEF(d)-2Nal-THP-E-N-3Pya-Sar-K(PEG2PEG2gEC18OH)-CONH2
B10: SEQ ID NO: 53 (peptide)
peptide: Ac-[dR][Pen]K(code d″)T[Trp(7-Me)]K(Ac)[Pen][AEF][2Nal][Thp]EN[3Pal][Sar]K([PEG2″-PEG2″-γGlu-C18OH])-NH2
modifications: disulfide 2-7 (inferred)
B11: SEQ ID NO: 36 (peptide)
peptide: Ac-[dR][Pen]NT[Trp(7-Me)]K([PEG2′-PEG2′-γGlu-C18OH])[Pen][dAEF′][2Nal][Thp]EN[3Pal][Sar]-NH2
modifications: disulfide 2-7 (inferred); reading uncertain; also: printed as MeCO-r-Pen(3)-N-T-7MeW-K(PEG2PEG2gEC18OH)-Pen(3)-AEF(d)-2Nal-THP-E-N-3Pya-Sar-CONH2
B12: SEQ ID NO: 55 (peptide)
peptide: [dR][Pen]K([PEG2″-PEG2″-γGlu-C18OH])T[Trp(7-Me)]K(Ac)[Pen][AEF][2Nal][Thp]EN[3Pal][Sar]-NH2
modifications: disulfide 2-7 (inferred); not fully specified (N-terminus); printed as cPEG3aCO-r-Pen(3)-K(PEG2PEG2gEC18OH)-T-7MeW-K(Ac)-Pen(3)-AEF-2Nal-THP-E-N-3Pya-Sar-CONH2
B13: SEQ ID NO: 41 (peptide)
peptide: Ac-[dR][Pen]NT[Trp(7-Me)]K(Ac)[Pen][AEF][2Nal][Thp]K(code d)N[3Pal][NMeK]([PEG2′-PEG2′-γGlu-C18OH])-NH2
modifications: disulfide 2-7 (inferred)
B14: SEQ ID NO: 19 (peptide)
peptide: Ac-[dR][Pen]NT[Trp(7-Me)]K[Pen][AEF][2Nal][Thp]EN[3Pal]X-NH2
modifications: disulfide 2-7 (inferred); not fully specified (residues 6, 14); printed as MeCO-r-Pen(3)-N-T-7MeW-K(PEG2PEG2gEC18OH)-Pen(3)-AEF-2Nal-THP-E-N-3Pya-NMeK(d)-CONH2
B15: SEQ ID NO: 32 (peptide)
peptide: {C18OH-γGlu-PEG2′-PEG2′}-[dR][Pen]NT[Trp(7-Me)]K(Ac)[Pen][dAEF′][2Nal][Thp]EN[3Pal][Sar]-NH2
modifications: disulfide 2-7 (inferred); reading uncertain; also: printed as HOC18gEPEG2PEG2CO-r-Pen(3)-N-T-7MeW-K(Ac)-Pen(3)-AEF(d)-2Nal-THP-E-N-3Pya-Sar-CONH2
B16: SEQ ID NO: 58 (peptide)
peptide: Ac-[dK]([PEG2″-PEG2″-γGlu-C18OH])[Pen]NT[Trp(7-Me)]K(Ac)[Pen][AEF][2Nal][Thp]EN[3Pal][Sar]-NH2
modifications: disulfide 2-7
B17: SEQ ID NO: 18 (peptide)
peptide: succiniccarn-[dR][Pen]K([PEG2(3)-PEG2(3)-γGlu-C18OH])T[Trp(7-Me)]K(Ac)[Pen][AEF][2Nal][Thp]EN[3Pal][Sar]-NH2
modifications: disulfide 2-7 (inferred); reading uncertain; also: printed as succiniccarn-r-Pen(3)-K(PEG2PEG2gEC18OH)-T-7MeW-K(Ac)-Pen(3)-AEF-2Nal-THP-E-N-3Pya-Sar-CONH2
B18: SEQ ID NO: 73 (peptide)
peptide: [dR][Pen]K([PEG2″-PEG2″-γGlu-C18OH])T[Trp(7-Me)]K(Ac)[Pen][AEF][2Nal][Thp]EN[3Pal][Sar]-NH2
modifications: disulfide 2-7 (inferred); not fully specified (N-terminus); printed as 5cpaCO-r-Pen(3)-K(PEG2PEG2gEC18OH)-T-7MeW-K(Ac)-Pen(3)-AEF-2Nal-THP-E-N-3Pya-Sar-CONH2
B19: SEQ ID NO: 71 (peptide)
peptide: [dR][Pen]NT[Trp(7-Me)]K([PEG2″-PEG2″-C18OH])[Pen][AEF][2Nal][Thp]EN[3Pal][Sar]-NH2
modifications: disulfide 2-7 (inferred); not fully specified (N-terminus); printed as 5cpaCO-r-Pen(3)-N-T-7MeW-K(PEG2PEG2C18OH)-Pen(3)-AEF-2Nal-THP-E-N-3Pya-Sar-CONH2
B20: SEQ ID NO: 52 (peptide)
peptide: Ac-[dR][Pen]NT[Trp(7-Me)]K(code d″)[Pen][AEF][2Nal][Thp]EN[3Pal][Sar]K([PEG2″-PEG2″-γGlu-C18OH])-NH2
modifications: disulfide 2-7 (inferred)
B21: SEQ ID NO: 78 (peptide)
peptide: XNTXXXXXXKNXX
modifications: cPEG3aCO-Pen(3)-N-T-7MeW-K(Ac)-Pen(3)-AEF-2Nal-THP-K(PEG2PEG2gEC18OH)-N-3Pya-Sar-CONH2
B22: SEQ ID NO: 48 (peptide)
peptide: Ac-[dR][Pen]NT[Trp(7-Me)]K(code d)[Pen][AEF][2Nal][Thp]K([PEG2′-PEG2′-γGlu-C18OH])N[3Pal][Sar]-NH2
modifications: disulfide 2-7 (inferred)
B23: SEQ ID NO: 31 (peptide)
peptide: succiniccarn-[dR][Pen]NT[Trp(7-Me)]K(Ac)[Pen][AEF][2Nal][Thp]EN[3Pal][NMeK]([PEG2′-PEG2′-γGlu-C18OH])-NH2
modifications: disulfide 2-7 (inferred); reading uncertain; also: printed as succiniccarn-r-Pen(3)-N-T-7MeW-K(Ac)-Pen(3)-AEF-2Nal-THP-E-N-3Pya-NMeK(PEG2PEG2gEC18OH)-CONH2

*1 amine or outer side, *2 acyl side, *3 side chain or, on linkers, in order; H or OH if unused. Bridges are numbered along the chain shown (N, C = ends). Primed or numbered codes have the meaning given here. Where no end group is shown, it is not given here. Side-chain parts run from the residue outwards. [ ]: non-standard residue; d: D form. The star is where a group is joined. code d = side-chain group of K(d): lysine given as (2R)-2-(4-((5-amino-5-carboxypentyl)amino)-4-oxobutanamido)-3-carboxy-N,N,N-trimethylpropan-1-aminium, C[N+](C)(C)C[C@@H](CC(=O)O)NC(=O)CCC(=O)*; code d″ = lysine side-chain amide of a carnitine-succinyl group ((2R)-3-carboxy-N,N,N-trimethylpropan-1-aminium amide; PEG2′ = PEG2 spacer unit (not further defined); Trp(7-Me) = Cc1cccc2c(C[C@H](N)C(=O)O)c[nH]c12; γGlu = O=C(O)[C@H](CCC(=O)[*:2])N[*:1]; 2Nal = N[C@@H](Cc1ccc2ccccc2c1)C(=O)O; AEF = NCCOc1ccc(C[C@H](N)C(=O)O)cc1; 3Pal = N[C@@H](Cc1cccnc1)C(=O)O; succiniccarn = not defined here; NMeK = CN[C@@H](CCCCN)C(=O)O; Pen = CC(C)(S)[C@H](N)C(=O)O; PEG2(3) = not defined here; PEG2″ = PEG2 spacer unit; dAEF′ = not defined here; Thp = NC1(C(=O)O)CCOCC1; Sar = CNCC(=O)O

The target of the experiment is T1, interleukin-23 receptor (IL-23R) (UniProt Q5VWK5 24-629, limits assumed).
T1 sequence (looked up): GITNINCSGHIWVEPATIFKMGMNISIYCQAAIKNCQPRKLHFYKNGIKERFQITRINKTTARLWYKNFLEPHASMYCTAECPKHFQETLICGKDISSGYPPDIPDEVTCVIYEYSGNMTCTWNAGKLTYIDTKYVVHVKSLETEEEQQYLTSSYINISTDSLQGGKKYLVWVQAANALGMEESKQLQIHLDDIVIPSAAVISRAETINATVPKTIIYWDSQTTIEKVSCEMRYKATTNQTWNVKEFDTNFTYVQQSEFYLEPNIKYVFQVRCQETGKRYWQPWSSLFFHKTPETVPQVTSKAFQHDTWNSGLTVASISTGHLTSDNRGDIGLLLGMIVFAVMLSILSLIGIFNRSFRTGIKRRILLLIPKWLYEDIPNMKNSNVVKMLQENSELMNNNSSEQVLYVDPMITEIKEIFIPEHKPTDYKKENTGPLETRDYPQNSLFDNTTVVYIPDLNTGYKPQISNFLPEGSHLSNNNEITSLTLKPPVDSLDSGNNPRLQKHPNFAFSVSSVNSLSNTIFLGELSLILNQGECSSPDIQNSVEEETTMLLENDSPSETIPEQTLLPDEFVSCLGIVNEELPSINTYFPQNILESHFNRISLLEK
The experiment is described as follows: cell-based or functional assay.
Take B1: the “PBMC pSTAT3 IC50” value was less than 0.5 nM.

For the molecule B2, the “PBMC pSTAT3 IC50” value was less than 0.5 nM.

Take B3: the “PBMC pSTAT3 IC50” value was less than 0.5 nM.

On to B4, for which the “PBMC pSTAT3 IC50” value was less than 0.5 nM.

B5: the “PBMC pSTAT3 IC50” value was less than 0.5 nM.

For the molecule B6, the “PBMC pSTAT3 IC50” value is less than 0.5 nM.

For B7, the “PBMC pSTAT3 IC50” value was less than 0.5 nM.

Take B8: the “PBMC pSTAT3 IC50” value is less than 0.5 nM.

With B9, the “PBMC pSTAT3 IC50” value is less than 0.5 nM.

Turning to B10, the “PBMC pSTAT3 IC50” value is less than 0.5 nM.

Turning to B11, the “PBMC pSTAT3 IC50” value is less than 0.5 nM.

Turning to B12, the “PBMC pSTAT3 IC50” value was less than 0.5 nM.

Regarding B13, the “PBMC pSTAT3 IC50” value is less than 0.5 nM.

Turning to B14, the “PBMC pSTAT3 IC50” value was less than 0.5 nM.

As to B15, the “PBMC pSTAT3 IC50” value was less than 0.5 nM.

Regarding B16, the “PBMC pSTAT3 IC50” value was less than 0.5 nM.

With B17, the “PBMC pSTAT3 IC50” value was less than 0.5 nM.

As to B18, the “PBMC pSTAT3 IC50” value was less than 0.5 nM.

Take B19: the “PBMC pSTAT3 IC50” value is less than 0.5 nM.

For B20, the “PBMC pSTAT3 IC50” value is less than 0.5 nM.

For the molecule B21, the “PBMC pSTAT3 IC50” value is less than 0.5 nM.

As to B22, the “PBMC pSTAT3 IC50” value was less than 0.5 nM.

In the case of B23, the “PBMC pSTAT3 IC50” value was less than 0.5 nM.
